Key:
[1] = target: T1, mouse insulin receptor (mouse, UniProt P15208 28-1372); test: FACS, serum-starved CHO-K1 cells expressing mouse INSR, no insulin
T1 construct: whole, on cells; also called muINSR; mINSR

[2] = target: T2, mouse insulin receptor complexed with human insulin (mouse; human, UniProt P15208 28-1372; P01308 25-54; P01308 90-110); test: FACS, serum-starved CHO-K1 cells expressing mouse INSR, with insulin
T2 construct: whole, on cells;mature; also called muINSR/hINS complex
Description: (§1) Twenty five microliter aliquots of cells were plated into 96 well plates, mixed with 25 ul of antibody or PPE and incubated on ice for 1 h.
(§2) The cells were then washed once with FACS buffer and the binding of the antibody was detected by the addition of 25 ul of an appropriate fluorochrome-conjugated secondary antibody. […] After a final 15 min incubation on ice the cells were washed and the pellets resuspended in FACS buffer. The cells were analyzed on a FACSCAN™ (Becton-Dickinson, Milipitas, Calif.) and the data analyzed in both FLOWJO™ (Treestar, Ashland, Oreg.) and Microsoft Excel™.

[3] = target: T3, human insulin receptor (human, UniProt P06213 28-1382); test: FACS, serum-starved CHO-K1 cells expressing human INSR, no insulin
T3 construct: whole, on cells; Uncomplexed receptor on serum-starved cells (CHOK1 transfectants or IM-9); also called hINSR; INSR
Description: as §1, §2

[4] = target: T2, mouse insulin receptor complexed with …; test: FACS, CHO-K1 mouse INSR cells, signal with insulin divided by signal without insulin
[5] = target: T4, human insulin receptor complexed with human insulin (human, UniProt P06213 28-1382; P01308 25-54; P01308 90-110); test: FACS, CHO-K1 human INSR cells, signal with insulin divided by signal without insulin
T4 construct: whole, on cells;mature; also called hINSR-hINS complex; INS/INSR complex
Description: as §1, §2

[6] = target: T4, human insulin receptor complexed with …; test: FACS, serum-starved CHO-K1 cells expressing human INSR, with insulin
[7] = target: T1, mouse insulin receptor; test: FACS on mouse INSR; conditions not given on the sheet
[8] = target: T1, mouse insulin receptor; test: FACS, serum-starved CHO-K1 cells expressing mouse INSR, no insulin [cont'd]
Description: as §1, §2

[9] = target: T2, mouse insulin receptor complexed with …; test: FACS, CHO-K1 mouse INSR cells, signal with insulin divided by signal without insulin [cont'd]
Description: as §1, §2

[10] = target: T2, mouse insulin receptor complexed with …; test: FACS, serum-starved CHO-K1 cells expressing mouse INSR, with insulin [cont'd]

FACS area under log transformed data MFI [1]	FACS area under log transformed data MFI [2]	FACS area under log transformed data MFI [3]	FACS area under log transformed data MFI ratio (+insulin/-insulin) [4]	FACS area under log transformed data MFI ratio (+insulin/-insulin) [5]	FACS area under log transformed data MFI [6]	binding result [7]	FACS area under log transformed data MFI [8]	FACS area under log transformed data MFI ratio (+insulin/-insulin) [9]	FACS area under log transformed data MFI [10]	Binder
892	397	445	0.45	–	–	–	–	–	–	Ab052 (antibody, IgG2, V domains shown, also called XPA.015.195) VH: EVQLVQSGAEVKKPGESLKISCKGSGYRFTSYWIGWVRQMPGRGLEWMGIIYPGDSDTRYSPSFQGQVTISVDKSISTAYLQWSSLKASDTAMYYCATHHASGRGLDPWGQGTLVTVSS VL: QAMLTQPASLSASPGASASLTCTLRSGINVVAYNIYWYRQKSGSPPQSVLRYKSDSDSERDSGVPSRFSGSKDVSANAGILLISGLQSEDEADYYCLIWHNSAWVFGGGTQLTVL
1030	519	1130	0.51	0.32	356	–	–	–	–	Ab054 (antibody, IgG2, V domains shown, also called XPA.015.197) VH: not shown VL: QSALTQPRSVSESPGKTVTISCTGSGGSIGSNYVQWYQQRPGSAPTTVIFEDNRRPSGVPDRFSGSIHSSSNSASLTISGLKTEDEADYYCQSYVGTIVVFGGGTKVTVL
409	250	–	0.61	–	–	–	–	–	–	Ab057 (antibody, IgG2, V domains shown, also called XPA.015.200) VH: QMQLVQSGAEVKKPGESLKISCKGYGYRFSDNWIGWVRQMPGRGLEWMGIIYPGDSETRYSPSFQGQVTISADKSISTAYLQWSSLKASDTAMYYCARHAPLAVAGMALGDWGQGTLVTVSS VL: QTVVTQEPSFSVSPGGTVTLTCGLTSGSVSTSYYPSWYQQTPGQAPRMLVHSTSTRYSGVPDRFSGSILGNKAALTITGAQADDESDYYCALYMGGGIYVFGGGTQLTVL
1020	813	1710	0.8	0.74	1270	–	–	–	–	Ab064 (antibody, IgG2, V domains shown, also called XPA.015.213) VH: QVQLVQSGAEVKKPGESLKISCKGSGFSFPSYWIGWVRQMPGKGLELVGIIYPGDSDIRYSPSFQGQVTISADTSISTVYLQWSSLQTTDTATYYCARGGFNWFDPWGQGTLVTVSS VL: QAVVTQEPSLTVSPGGTVTLTCASSTGAVTSGYYPNWFQQKPGQAPRALIYSTSNKHSWTPARFSGSLLGGKAALTLSGVQPEDEAEYYCLLYYGGAQPWVFGGGTQLTVL
210	388	460	1.85	0.67	308	–	–	–	–	Ab060 (antibody, IgG2, V domains shown, also called XPA.015.207) VH: QMQLVQSGAEVKKPGSSVKVSCKASGGTFSSYAISWVRQAPGQGLEWMGIINPSGGSTSYAQKFQGRVTMTRDRSTSTVYMELSSLTSEDTAVYYCVRDNHGWSFDYWGQGTLVTVSS VL: QAVLTQPASLSASPGESARLTCTLPSDINVRYYNIYWYQQKPGSPPRYLLYYYSDSNKDQGSGVPSRFSGSKDVSTNTGILVISGLQSEDEAEYYCMTWSSNGSGVFGGGTQLTVL
1520	1140	1560	0.76	0.74	1160	–	–	–	–	Ab066 (antibody, IgG2, V domains shown, also called XPA.015.215) VH: EVQLVQSGAEVKKPGSSVKVSCKASGGTFSSYAISWVRQAPGQGLEWMGGIIPIFGTANYAQKFQGRVTITADKSTSTAYMELSRLRSDDTAVYYCARDASYGGNSEGFDYWGQGTLVTVSS VL: SSELTQDPAVSVAVGQSVRITCQGDSLKNFYATWYQQRPGQAPLLVIFGKNNRPSGIPDRFSGSSSGNTASLTVTGAQADDEADYYCNSPDSSNKLVVFGGGTKLTVL
1020	733	943	0.72	0.71	674	–	–	–	–	Ab063 (antibody, IgG2, V domains shown, also called XPA.015.212) VH: QVQLQQSGPGLVKPSQTLSLTCAISGDSVSSNSAAWNWIRQSPSRGLEWLGRTYYRSKWYTDYALSVKSRITINPDTSKNQFSLHLNSVTPEDTAVYYCAREGWLGYFDFWGQGTLVTVSS VL: SSELTQPPSVSVAPGKTATITCGGDNIASKSVHWYQQKPGQAPVLVLYDDSVRPSDIPERFSGSNSANTATLTLTRVEAGDEGEYYCQVWDVRSDHPFFGPGTKVTVL
–	–	–	–	–	–	no binding	–	–	–	Ab028 (antibody, V domains shown, also called XPA.015.059) VH: EVQLLESGGGLVQPGGSLRLSCAASGFTFRNYWMTWVRQAPGKGLEWVANIKQDGSEKYYVDSVKGRSTISRDNSKNTLYLQMNSLRAEDTAVYYCARQVGGGPFDIWGQGTLVTVSS VL: not shown
–	–	–	–	–	–	–	189	0.66	125	Ab081 (antibody, IgG2, V domains shown, Negative modulator; also called XPA.015.247) VH: EVQLVETGGGVVQPGRSLRLSCAASGFTFSSYAMHWVRQAPGKGLEWVAVISYDGSNKYYADSVKGRFTISRDNSKNTLYLQMNSLRAEDTAVYYCARHEWGFGMDVWGQGTTVTVSS VL: DVVMTQSPLSLSVTLGQPASISCRSSLSLVYGDENTYLNWFQQRPGQSPRRLLYKVSDRDSGVPDRFSGSGSGTDFTLKISRVEADDVGVYYCMQGTHWPYTFGQGTKLEIK
–	–	1110	–	0.84	927	–	–	–	–	Ab056 (antibody, IgG2, V domains shown, also called XPA.015.199) VH: QVQLVQSGSEVKKPGASVKVSCKASGYTFTNSYMHWVRQAPGQGLEWMGIINPSAGTSYAQKFQGRVTMTRDTSTSTVYMELSSLKSEDTAVYYCARDVGWLPGDYWGQGTLVTVSS VL: QSALTQPASVSESPGQSITISCTGTGSDIGTYNLVSWYQHHPGKAPKLMIYEVTKRPSGVSNRFSGSKSGNTASLTISGLQAEDEADYYCSSYTSSSTLYVFGTGTKLTVL
424	170	252	0.4	–	–	–	–	–	–	Ab050 (antibody, IgG2, V domains shown, also called XPA.015.193) VH: QVQLVQSGAELKKPGATVKISCKVSGYTFGDYHMHWVKQAPGKGLEWMGLVDPENGETEYGEKFQDRITMAADTSTDTAYMELSSLRSEDTAVYYCARSPSSSGYFRVDGFDIWGQGTMVTVSS VL: NFMLTQPHSVSESPGKTVSISCTGSSGSIGSNYVQWYQQRPGSAPTTVIYEDNQRPSGVPDRFSGSIDSSSNSASLTISGLKTEDEADYYCQSYYNSNVVFGGGTKLTVL
–	–	–	–	–	–	no binding	–	–	–	Ab027 (antibody, V domains shown, also called XPA.015.042) VH: EVQLLESGGGLVQPGGSLGLSCAASGFTFNNYWMSWVRQAPGKGLEWVSYISGSGRTIYYADSVKGRFTISRDNSKNTLYLQMNSLRAEDTAVYYCARVGSSGWYYFDYWGQGTLVTVSS VL: QSVLTQPPSASGTPGQRVTISCSGRSSNIENNYVSWYQQLPGTAPKLLIYGNSNRPSGVPDRFSGSKSGTSASLAISGLRSEDEADYYCAAWDDSLNGVVFGGGTKLTVLG
642	383	357	0.6	–	–	–	–	–	–	Ab069 (antibody, IgG2, V domains shown, also called XPA.015.222) VH: EVQLVQSGAEVKKPGESLKISCKGSGYSFTSYWIGWVRQMPGKGLEWMGIIYPGDSDTRYSPSFQGQVTISADKSISIAYLQWSSLKASDTAMYYCARLGRGYYGMDVWGQGTTVTVSS VL: SSELTQDPAVSVALGQTVRITCQGDSLRSYYASWYQQKPGQAPVLVIYGKNNRPSGIPDRFSGSRSGNTASLTITGAQAEDEADYYCNSRDSSGNHVVFGGGTKVTVL
483	177	205	0.37	–	–	–	–	–	–	Ab065 (antibody, IgG2, V domains shown, also called XPA.015.214) VH: QVQLVQSGAEVKKPGESLKISCKGSGYSFTSYWIGWVRQMPGKGLEWMGIIYPGDSDTRYSPSFQGQVTISADKSISTAYLQWSSLKASDTAMYYCARHELGIDYWGQGTLVTVSS VL: QAGLTQPPSVSKGLRQTATLTCTGDNNIVGDQGAAWLQQHQGHPPKLLSFRNNSRPSGISERFSASRSRNTASLTITRLQPEDAADYYCSAWDSFLSAWVFGGGTKLTVL
